Test results as given in the DeepSol protein solubility set.

Assay: soluble on expression in E. coli; label from the status in PepcDB or PDB records

Sequence | soluble on expression in E. coli
MEALGADVTQGLEKGSLITCADNTGARELKVISVHGYSGTKNRHPKAGLGDKITVSVTKGTPEMRRQVLEAVVVRQRKPIRRPDGTRVKFEDNAAVIVDENEDPRGTELKGPIAREVAQRFGSVASAATMIV | soluble
MEALKIALLGGGTVGSAFYNLVLERAEELSAFGVVPRFLGVLVRDPRKPRAIPQELLRAEPFDLLEADLVVEAMGGVEAPLRLVLPALEAGIPLITANKALLAEAWESLRPFAEEGLIYHEASVMAGTPALSFLETLRGSELLELHGILNGTTLYILQEMEKGRTYAEALLEAQRLGYAEADPTLDVEGIDAAHKLTLLARLLVDPGFPFAEVEAQGIARLTPEVLQKAEARGERVRLVASLFGEGGRWRAAVAPRRLPQDHPLARARGNALWVRARPLGEAFVTGPGAGGGATASGLFADLLRFLSGAPGHLPAPRARPPLEEGSPWPGVE | soluble
MEASDLTFTVSVDQTTKHVFDAICNVRGWWSEEIEGNTDKRNETFIYQYEDVHYAKIKVQELIPNEKVVWLVTYNYFKFTKDKSEWTGTTIRFDISAKGDKTEIRFTHYGLNPEFECYDICSNAWGQYIGQSLPDLIKSGKGNPNGKNKPTTADEERFSAKNLEHHHHHH | soluble
MEASMERFDNAPETALAWHRQGLGAALATVVETWGSAPRRVGAQLVIGGDGRIEGSVSGGCVEGAVIVEALEALEEGQARLLEFGVSDEDAFAVGLACGGTIRVLVEPVGQVLSEVMLAELVAARASRQALAYVVDTARGTRALVRDAYPERMRMDRSGFDEDGRTFVAVHNPPLRLIVVGAVHIAQALVPMARIAGYDPVVIDPREAFASDARFPGETILHDWPDEAVAKLGLDARTALVLLTHDPKLDDPALEAALAADVFYIGALGSTRTHAKRVARMQEAGFTEAQIGRIHGPVGLDIGAAGPAEIAVAILAQMTAVLRGRA | soluble
MEAVERAFRALDEGIADYLARKGIRPSCGPGCFACCYGWVTASRLEAQALLPHLTEAQKARVLEEGPRRLALLAREKDDPGFPRRFFLSRSPCPLLEAGLCGVYAHRPLACRGVLTDEDPAYCDPENPHPAPKPHHGPGHFLRVPHRMARRRMEELWEEERAQTGFLVLGELSGLLYLLLTGLPEDREGVEARLEALGVLGGRFGFQVVAAALEHHHHHH | not soluble
MECFRSRIITIYLKRLKYSPLLWRNAKRGTRSSYMWLYVSICCGDFQFWKLSGTPSSPTCKTHSCGFIFWTNTHLLGDQLRYTIMDTIGMYLIIKQRLRNIHKNDPRLFQYVFENGHPLPYNR | not soluble
MEDDDSPSSRDLDAQNPYDRLLALDTSTVDPNCNLDSVSAIYLAMKSSKLECVDERGQDSLITSVCMEDEEDEELDEFDPYLFIKNLPNLSSVVPTFRPVLLPKQTRSCPPISLVLDLDETLVHSTLEPCGEVDFTFPVNFNEEEHMVYVRCRPHLKEFMERVSRLFEIIIFTASQSIYAEQLLNVLDPKRKLFRHRVYRDSCVFFDGNYLKDLSVLGRDLSRVIIVDNSPQAFGFQVENGVPIESWFNDPSDKELLHLLPFLESLIGVEDVRPMIAKKFNLREKIDAAVAAPEYPAEAGDPFER | soluble
MEDVVLPLKKVLRVATEADYKCVAENGDSCQKAFLLCDEKIRERELDMSLVDVDYTFDRNKIIFYFTAEGRVDFRELVKDLASVFRTRIELRQIGVRDEAKLEHHHHHH | not soluble
MEEEHEEESHLSQSDTVGSAIVEDGPGKEYEIYIKNEELVDKLKLLNYEDGFLKLGVVYKPILKHYFVKSKNVGEQFFLFTSLAAWLIKKSGDESYNMPQEFDDPNSTLANIMAAAKNKGIATDFTAAKLKSGAGENVIFILNSLADASLVHVGFQWQKMIPPKEEDEDTAVDEQDEDDDNDDIVEEPMNFLDDDDDDNVIEIDLKAQGLATESKNPLQSVLQSNTDAITWKQEVERVAPQLKITLKQDAKDWRLHLEQMNSMHKNVEQKVGNVGPYLDNMSKDIAKALERIASREKSLNSQLASMMSKFRRATDTRAELREKYKAASVGVSSRTETLDRISDDIEQLKQQIEEQGAKSSDGAPLVKIKQAVSKLEEELQTMNVQIGVFEQSILNTYLRDHFNFSANLLNIM | soluble
MEEIKPASASCVSKEKPSKVSDLISRFEGGSSLSNYSDLKKESAVNLNAPRTPGRHGLTTTPQQKLLSQHLPQRQGNDADKTQGAQTCVANGVMAAQNQMECEEEKAATLSSDTSIQASEPLLDTHIVNGERDETATAPASPTTDSCDGNASDSSYRTPGIGPVLPLEERGAETETKVQERENGESPLELEQLDQHHEMKETNEQKLHKIANELLLTERAYVNRLDLLDQVFYCKLLEEANRGSFPAEMVNKIFSNISSINAFHSKFLLPELEKRMQEWETTPRIGDILQKLAPFLKMYGEYVKGFDNAMELVKNMTERIPQFKSVVEEIQKQKICGSLTLQHHMLEPVQRIPRYEMLLKDYLRKLPPDSLDWNDAKKSLEIISTAASHSNSAIRKMENLKKLLEIYEMLGEEEDIVNPSNELIKEGQILKLAARNTSAQERYLFLFNNMLLYCVPKFSLVGSKFTVRTRVGIDGMKIVETQNEEYPHTFQVSGKERTLELQASSAQDKEEWIKALQETIDAFHQRHETFRNAIAKDNDIHSEVSTAELGKRAPRWIRDNEVTMCMKCKEPFNALTRRRHHCRACGYVVCWKCSDYKAQLEYDGGKLSKVCKDCYQIISGFTDSEEKKRKGILEIESAEVSGNSVVCSFLQYMEKSKPWQKAWCVIPKQDPLVLYMYGAPQDVRAQATIPLLGYVVDEMPRSADLPHSFKLTQSKSVHSFAADSEELKQKWLKVILLAVTGETPGGPNEHPATLDDHPEPKKKSEC | soluble
MEEMGSRSDTIMVASLNRETKEIKLVSVYRDTLLQLSDGTYNKANAAYAYGGEEEAVAMLNKNLDLNIEHYVSVDFSVLVHVIDALGGIDINVEEAENGMDIIPYLNNYVVEVIKNTGVDSAPFTQLGQQHLNGVQATAYARLRYGGGDDYKRTERQRQVLEQIAIKAQKAKLSTINKIIDKVFDNVKTNFTLTETIAYAKDVKSYIFGETQGFPYESTTADLDVGNSVVATDLASDVTKLHQFLFGENDYTPSSTVQSISEDISNSTYDTGESYDTEYDEYGYSQDYSGYDSGYTDNSYGTGGYQDSGYGDGSSGNGYTEDTGGDYVPPSDGGGTDSGSSDSNSQIPDTGTGDSGDTGGESLELEHHHHHH | soluble
MEENLERTESLAREADDCHPIFRIAPSTVEFNKLRKRLLRHIRQAFDDFSMLSSGKKWLVALSGGKDSYGLLALLLDLKWRGLLPVEILACNLDQGQPGFPKHILPDFLNSYQIPHRIEYQDTYSIVTDKLVHTQTYCSLCSRLRRGNLYRIAREEGCSALVLGHHRDDVLETFFMNLFHGGRLAAMPGKLINDEGDLFVLRPLVYAAEEDMEKFSQAMQFPIIPCNLCGSQDGLQRNAMKEMLKDIERKMPGRKDTMIRALTNVRPSHLLDKKFFDFKNLF | not soluble
MEEPKLILTVKNNKNNKCIIEILNRLYLKDLNSKAEEIIKNVILVYTSLTPIMAYGLLISAPPSCLAKIYPVDLVIHSVKEREIIDKITEFLKKNIQFKTFYVDCYDRGIKINCREVEIGIGIGLRGFASVDYKNPEKVIVVNVIKDSTYMSVIKKGQEKVSVISLR | soluble
MEERELVEYFRGQIREDPDVASAVAAIRSLLEFLKRDQSETILGLRENMTQAIHRLQEADPSVAVSSGGELFLRFISLTSLEHPDLSQCKNVMIERGELFLKKISLSRGKVGKLCHTFIKDGAKILTHSSSRVVLKVLENAAADNKRFTVKLMAEKLRKLSIPVTVVLDAAVGYILEKVDLVIVGAEGVVESGGVINKIGTYQMAVCSKAHNKPFYVVAESFKFVRLYPLNQQDVPDRFKYKADVLKTAEDLNQEHPLIDYTPSSLITLLFTDLGVLTPSAVSDELIKLYL | soluble
MEERLNRVKQQLQQSSYKLTPQREATVRVLIENEKDHLSAEDVYLKVKDKAPEIGLATVYRTLELLAELKVVDKINFGDGVARFDLRKEGAKHFHHHLVCMECGRVDEIDEDLLPEVENRVENEFNFKILDHRLTFHGVCETCQAKGKG | not soluble
MEERMEMISERPKESMYSWNKTAEKSDFEAVEALMSMSCSWKSDFKKYVENRPVTPVSDLSEEENLLPGTPDFHTIPAFCLTPPYSPSDFEPSQVSNLMAPAPSTVHFKSLSDTAKPHIAAPFKEEEKSPVSAPKLPKAQATSVIRHTADAQLCNHQTCPMKAASILNYQNNSFRRRTHLNVEAARKNIPCAAVSPNRSKCERNTVADVDEKASAALYDFSVPSSETVICRSQPAPVSPQQKSVLVSPPAVSAGGVPPMPVICQMVPLPANNPVVTTVVPSTPPSQPPAVCPPVVFMGTQVPKGAVMFVVPQPVVQSSKPPVVSPNGTRLSPIAPAPGFSPSAAKVTPQIDSSRIRSHICSHPGCGKTYFKSSHLKAHTRTHTGEKPFSCSWKGCERRFARSDELSRHRRTHTGEKKFACPMCDRRFMRSDHLTKHARRHLSAKKLPNWQMEVSKLNDIALPPTPAPTQ | soluble
MEERNHENTLEKDLEAVGQEAQALEERLKAAEEELKGLKDKYLRLLADFDNYRKRMEEELKAREREGVLKALRALLPVLDDLDRALEFAEASPESIRQGVRAIRDGFFRILAGLGVEEVPGEGEAFDPRYHEAVGLLPGEPGKVAKVFQRGFRMGEALVRPARVAVGEEKREEADLE | soluble
MEEVFTAALESKIFRKRWVLLPDYVPDVLPHREAELRRLAEVLAPALRGEKPSNALLYGLTGTGKTAVARLVLRRLEARASSLGVLVKPIYVNARHRETPYRVASAIAEAVGVRVPFTGLSVGEVYERLVKRLSRLRGIYIIVLDEIDFLPKRPGGQDLLYRITRINQELGDRVWVSLVGITNSLGFVENLEPRVKSSLGEVELVFPPYTAPQLRDILETRAEEAFNPGVLDPDVVPLCAALAAREHGDARRALDLLRVAGEIAERRREERVRREHVYSARAEIERDRVSEVVRTLPLHAKLVLLSIMMLEDGGRPASTGEIYERYKELTSTLGLEHVTLRRVSGIISELDMLGIVKSRVVSRGRYGKTREVSLDADRLAVENALSEDPFVARLL | not soluble
MEEVYASELRGREPETVDTLFLDNTQGGVIGGINEKLTKLELLSMVKCGLTTLKGMPVLPALNYLDLSDNELGDDASFDVLIKCAPEIKKITLSGNRLTLDNVRTLKMLPNLMELDLSNNSSLGLLDDYRVKMFEMIPSLKILDGCDVDGEEVEEEFAAGEGAEDSDEGDSDEDGPGLSYLNKSQFSDDETDDYVVPEAGDAETRGAKRAASADCDEPEAKKSAE | soluble
MEFVVEEGKLVNEDCSTLVLPALSIGNVGQLAVDLLVSSTGAERVGYLDDPNLLPCVGNDAYGPLPCGEIALPLEVYESSSIATTLAQQRSPVAKGMMIKFAENIANFAASSGKKHIIVLSSLDFQRLHNLDMSRGPQVYYLSNAESDGRDDHCERLGFGRLHEYDSEGRCWKYLSSVFEKNSVEELALPSEDELEDIDYYPSLPFAALFSAFKARGLKMTCLLCYCSEGDNIPEAFLLAEASSKLMGLTPDKFHGEEGGKWQIPYSWKSMYGAPPDMSMF | soluble
MEGEYRLTRSYAVVDITAQVDDSAILEPFACVMARARIGPRTRVGAHSVVGVGVSVGADCCIYHHVTLLNCDIGDRCVIHSGVAIGQDGFGFEVDQQTGKVRKKPQELSVRIGNEVEIGANTCIDRGSWRDTLIEDAVKIDNLVQIGHNVQVGANTFICGQAGVAGSTKIGRYCRFGGRSGAVDHLEIGDHVDVAANSVLTRNAPGHAVYAGFPAMPMREWRHQQVTLRRLSRAGKRQVDVSADDPEFPK | not soluble
